According to article PMC6678494, “Characterization of the First Bacterial and Thermostable GDP-Mannose 3,5-Epimerase” (International Journal of Molecular Sciences, 2019):

B1: MfGM35E (Candidatus Methylacidiphilum fumarolicum) (protein)
chain: MKKALVAGAGGFIGHHLVNFLKEKGYWVRGVDIKEPEYEKSRSDEFYLLDLRYWGNCLEATKGVDEVYQLAADMGGIGYISGNHAEIAKNNILINTHMLEASYQNGVKRYFYSSSACIYPSYRQQSVDVIPLKEEDAMPADPEEGYGWEKLFAEKLCQYYQEDKGIETRIARFHNVYGPLGTYKGGREKAPAAICRKIALAEDSSEIEVWGDGKQTRSFLYIQDCVEGIYLITQSDYPKPLNLGSEELVTIDQLVEMTAKVANKNIRIRHNLSKPQGVRGRNSDNSKLYKITGWRPKFPLLEGLKLTYPWIAERVARERNMQGCQ
notes: codon-optimized gene in pET21 (NdeI/XhoI), C-terminal His6-tag kept, E. coli BL21(DE3), Ni-NTA, about 37 kDa

Assays:
MfGM35E = molecular target: T1, MfGM35E (Candidatus Methylacidiphilum fumarolicum, UniProt A0ABM9IGG7); experiment: specific activity with added NAD+, HPAEC-PAD; type: biochemical; conditions: 2 mM GDP-Man, 100 mM MOPS pH 7.5, 50 °C; independent of added NAD+ concentration
T1 construct: gene MFUM_2356; codon-optimized gene in pET21 (NdeI/XhoI), C-terminal His6-tag kept, E. coli BL21(DE3), Ni-NTA, about 37 kDa

[1] = substrate: Nc1nc2c(ncn2[C@@H]2O[C@H](COP(=O)(O)OP(=O)(O)O[C@H]3O[C@H](CO)[C@@H](O)[C@H](O)[C@@H]3O)[C@@H](O)[C@H]2O)c(=O)[nH]1; experiment: initial rate of GDP-L-galactose formation, HPAEC-PAD, Michaelis-Menten fit; type: biochemical, Candidatus Methylacidiphilum fumarolicum; conditions: 100 mM MOPS pH 7, 60 °C, 20-2000 µM substrate

| Molecule | % increase in activity (MfGM35E) [%] | Km [1] [µM] | kcat [1] [s⁻¹] |
| --- | --- | --- | --- |
| NC(=O)c1ccc[n+]([C@@H]2O[C@H](COP(=O)(O)OP(=O)(O)OC[C@H]3O[C@@H](n4cnc5c(N)ncnc54)[C@H](O)[C@@H]3O)[C@@H](O)[C@H]2O)c1 [NAD^+] | 65 | – | – |
| B1 | – | 98 | 0.2 |
